In paper PMC3198853 one finds Kd data, which are given here for 1 substance.

One may read the Kd as the equilibrium constant for the complex coming apart. The low end stands for higher affinity, the high end for lower affinity.

The target of this assay is LDLRs. Briefly: SPR. Background: Surface plasmon resonance follows binding to a sensor surface in real time, without labels.

For “Tissue-type plasminogen activator (recombinant human tPA, Actilyse) (enzyme)”, the Kd was determined as 330 nM.
